28 sequences from the DeepSol protein solubility set can be followed below.

This series is described as follows: soluble on expression in E. coli; label from the status in PepcDB or PDB records.
With “GPLPVDLRGKTAFVAGVADSNGYGWAICKLLRAAGARVLVGTWPPVYSIFKKGLESSRFEQDSFYAQEPSSKVAAEAAEKPVDLVFDKIYPLDAVFDTPQDVPPEVSSNKRYAGVGGFTISEVAEAVRADVGQIDILVHSLANGPEVTKPLLQTSRKGYLAAVSSSSYSFVSLLQHFLPLMKEGGSALALSYIASEKVIPGYGGGMSSAKAALESDCRTLAFEAGRARAVRVNCISAGPLKSRAASAIGKAGDKTFIDLAIDYSEANAPLQKELESDDVGRAALFLLSPLARAVTGATLYVDNGLHAMGQALDSKSLTP”, the “soluble on expression in E. coli” value was “soluble”.
Take “GPPSGKTYMGWWGHMGGPKQKGITSYAVSPYAQKPLQGIFHNAVFNSFRRFKSQFLYVLIPAGIYWYWWKNGNEYNEFLYSKAGREELERVNV”: the “soluble on expression in E. coli” value is given as “soluble”.
Under “GQGKLISVKTDVLDLTINTRGGDVEQALLPAYPKELNSTQPFQLLETSPQFIYQAQSGLTGRDGPDNPANGPRPLYNVEKDAYVLAEGQNELQVPMTYTDAAGNTFTKTFVLKRGDYAVNVNYNVQNAGEKPLEISSFGQLKQSITLPPHLDTGSSNFALHTFRGAAYSTPDEKYEKYKFDTIADNENLNISSKGGWVAMLQQYFATAWIPHNDGTNNFYTANLGNGIAAIGYKSQPVLVQPGQTGAMNSTLWVGPEIQDKMAAVAPHLDLTVDHHHHHH” stands “soluble”; under “GQVQLVESGPGLVAPSQSLSITCTVSGISLSRYNVHWVRQSPGKGLEWLGMIWGGGSIEYNPALKSRLSISKDNSKSQIFLKMNSLQTDDSAMYYCVSYGYGGDRFSYWGQGTLVTVS”, “soluble”.
“GQYTFSMPSDSHVSSCSEDWVGYQRKCYFISTVKRSWTSAQNACSEHGATLAVIDSEKDMNFLKRYAGREEHWVGLKKEPGHPWKWSNGKEFNNWFNVTGSDKCVFLKNTEVSSMECEKNLYWICNKPYK”: the “soluble on expression in E. coli” value is “soluble”.
Take “GSDHVDLREHVIDVPPQEVICKDNVVVTVDAVVYYQVIDPVKAVYNVSDFLMAIVKLAQTNLRAIIGEMELDETLSGRDIINARLREELDKITDRWGVKITRVEIQRIDPPKD”: the “soluble on expression in E. coli” value was “soluble”.
Under “GSDLTYAYLVGLFEGDGYFSITKKGKYLTYELGIELSIKDVQLIYKIKKILGIGIVSFRKRNEIEMVALRIRDKNHLKSFILPIFEKYPMFSNKQYDYLRFRNALLSGIISLEDLPDYTRSDEPLNSIESIINTSYFSAWLVGFIEAEGCFSVYKLNKDDDYLIASFDIAQRDGDILISAIRKYLSFTTKVYLDKTNCSKLKVTSVRSVENIIKFLQNAPVKLLGNKKLQYLLWLKQLRKISRYSEKIKIPSNY” stands “soluble”.
Consider “GSGYVFGGFIRADIKKWYIQPNIYYMYNSSSIDVNQTSTDVKSKSVNGDVLLGYRFFKFTDLTYLRLFAGPGYSNINTLKYDSCTSDYSTDNILLNAGVGLDFWKLTFDLKYQRGLTDIDKSSNTMHTSLFMLTAGFKIL”, for which the “soluble on expression in E. coli” value is on record as “not soluble”.
Under “GSHMASDLKNPYERIQAEAYDAMSGIQTEGTDDDGGGDNIGWINDGDWVKYERVHFERDASSIEVRVASDTPGGRIEIRTGSPTGTLLGDVQVPNTGGWQQWQTVTGNVQIQPGTYDVYLVFKGSPEYDLMNVNWFVFRANG” stands “soluble”; under “GSHMASMTGGQQMGRGSWKRAFLAFGSNIGDRFKHIQMALQLLSREKTVKLRNISSIFESEPMYFKDQTPFMNGCVEVETLLTPSELLKLCKKIEYEELQRVKHFDNGPRTIDLDIVMFLNSAGEDIIVNEPDLNIPHPRMLERTFVLEPLCELISPVHLHPVTAEPIVDHLKQLYDKQHDEDTLWKLVPLPYRSGVEPRFLKFKTATKLDEFTGETNRITVSPTYIMAIFNATPDSFSDGGEHFADIESQLNDIIKLCKDALYLHESVIIDVGGCSTRPNSIQASEEEEIRRSIPLIKAIRESTELPQDKVILSIDTYRSNVAKEAIKVGVDIINDISGGLFDSNMFAVIAENPEICYILSHTRGDISTMNRLAHYENFALGDSIQQEFVHNTDIQQLDDLKDKTVLIRNVGQEIGERYIKAIDNGVKRWQILIDPGLGFAKTWKQNLQIIRHIPILKNYSFTMNSNNSQVYVNLRNMPVLLGPSRKKFIGHITKDVDAKQRDFATGAVVASCIGFGSDMVRVHDVKNCSKSIKLADAIYKGLE”, “soluble”.
As for “GSHMASPPTHNAHNWRLGQAPANWYNDTYPLSPPQRTPAGIRYRIAVIADLDTESRAQEENTWFSYLKKGYLTLSDSGDKVAVEWDKDHGVLESHLAYKGRGMELSDLIVFNGKLYSVDDRTGVVYQIEGSKAVPWVILSDGDGTVEKGFKAEWLAVKDERLYVGGLGKEWTTTTGDVVNENPEWVKVVGYKGSVDHENWVSNYNALRAAAGIQPPGYLIHESACWSDTLQRWFFLPRRASQERYSEKDDERKGANLLLSASPDFGDIAVSHVGAVVPTHGFSSFKFIPNTDDQIIVALKSEEDSGRVASYIMAFTLDGRFLLPETKIGSVKYEGIEFI”, the entry is “soluble”; as for “GSHMDLLDPVDILSKMPKDFYDKLEEKKWTLRKESLEVLEKLLTDHPKLENGEYGALVSALKKVITKDSNVVLVAMAGKCLALLAKGLAKRFSNYASACVPSLLEKFKEKKPNVVTALREAIDAIYASTSLEAQQESIVESLSNKNPSVKSETALFIARALTRTQPTALNKKLLKLLTTSLVKTLNEPDPTVRDSSAEALGTLIKLMGDKAVTPLLADVDPLKMAKIKECQEKAEIKIKVAG”, “soluble”; as for “GSHMEKRTPHTRLSQVKKLVNAGQVRTTRSALLNADELGLDFDGMCNVIIGLSESDFYKSMTTYSDHTIWQDVYRPRLVTGQVYLKITVIHDVLIVSFKEK”, “soluble”.
Consider “GSHMFMPSDRSTERCETVLEGETISCFVVGGEKRLCLPQILNSVLRDFSLQQINAVCDELHIYCSRCTADQLEILKVMGILPFSAPSCGLITKTDAERLCNALLYG”, for which the “soluble on expression in E. coli” value was “soluble”.
“GSHMGGRLEGLTQDLRQLQESEQQLDHLMNICTTQLRLLSEDTDSQRLAYVTCQDLRSIADPAEQMVMVIKAPPETQLQAVDSSENFQISLKSKQGPIDVFLCPEE”: the “soluble on expression in E. coli” value is recorded as “soluble”.
On to “GSHMGKDCIMHGYMSKMGNPFLTQWQRRYFYLFPNRLEWRGEGEAPQSLLTMEEIQSVEETQIKERKCLLLKIRGGKQFILQCDSDPELVQWKKELRDAYREAQQLVQRVPKMKNKPRS”, for which the “soluble on expression in E. coli” value is “soluble”.
Under “GSHMNIITVTLNMEKYNFLGISIVGQSNERGDGGIYIGSIMKGGAVAADGRIEPGDMLLQVNDMNFENMSNDDAVRVLRDIVHKPGPIVLTVAKSGGGGEIVLWSDIP” stands “soluble”.
Take “GSHMRRYIGVMMLTLSPSILAELQLREPSFPDVQHGVLIHKVILGSPAHRAGLRPGDVILAIGEQMVQNAEDVYEAVRTQSQLAVQIRRGRETLTLYVTPEVTEGGGWTMFWV”: the “soluble on expression in E. coli” value is on record as “soluble”.
As for “GSHMTRETERFPAREFQRDLLDWFARERRDLPWRKDRDPYKVWVSEVMLQQTRVETVIPYFEQFIDRFPTLEALADADEDEVLKAWEGLGYYSRVRNLHAAVKEVKTRYGGKVPDDPDEFSRLKGVGPYTVGAVLSLAYGVPEPAVDGNVMRVLSRLFLVTDDIAKPSTRKRFEQIVREIMAYENPGAFNEALIELGALVCTPRRPSCLLCPVQAYCQAFAEGVAEELPVKMKKTAVKQVPLAVAVLADDEGRVLIRKRDSTGLLANLWEFPSCETDGADGKEKLEQMVGEQYGLQVELTEPIVSFEHAFSHLVWQLTVFPGRLVHGGPVEEPYRLAPEDELKAYAFPVSHQRVWREYKEWASGVRPPP”, the entry is “soluble”; as for “GSHMVNIIQKFIPVGANNRPGYAMKPKYITVHNTANTAVGADAAAHARYLKNPDTTTSWHFTVDDKEIYQHLPLNENGWHAGDGNGSGNRASIGIEICENADGDFAKATANAQWLIKTLMAEHNISLANVVPHKYWSGKECPRKLLDKWDSFKAGIG”, “soluble”; as for “GSHMVVELAYTDPDRAVDWLVRVFGFRLLLRQPAIGTIRHADLDTGGGIVMVRRTGEPYTVSCAGGHTCKQVIVWVSDVDEHFMRSTAAGADIVQPLQDKPWGLRQYLVRDLEGHLWEFTRHLRDVPPREWGAVAMT”, “soluble”.
Under “GSLKCILLNQAEELPIEFLPKDGVYGKGKLFDSRNMEIENFTESDILQDARRAAEAHRRARYRVQSIVRPGITLLEIVRSIEDSTRTLLKGERNNGIGFPAGMSMNSCAAHYTVNPGEQDIVLKEDDVLKIDFGTHSDGRIMDSAFTVAFKENLEPLLVAAREGTETGIKSLGVDVRVCDIGRDINEVISSYEVEIGGRMWPIRPISDLHGHSISQFRIHGGISIPAVNNRDTTRIKGDSFYAVETFATTGKGSIDDRPPCSHFVLNTYKSRKLFNKDLIKVYEFVKDSLGTLPFSPRHLDYYGLVKGGSLKSVNLLTMMGLLTPYPPLNDIDGCKVAQFEHTVYLSEHGKEVLTRGDDY” stands “soluble”; under “GSMALTQVETEIVPVSVDGETLTVEAVRRVAEERATVDVPAESIAKAQKSREIFEGIAEQNIPIYGVTTGYGEMIYMQVDKSKEVELQTNLVRSHSAGVGPLFAEDEARAIVAARLNTLAKGHSAVRPIILERLAQYLNEGITPAIPEIGSLGASGDLAPLSHVASTLIGEGYVLRDGRPVETAQVLAERGIEPLELRFKEGLALINGTSGMTGLGSLVVGRALEQAQQAEIVTALLIEAVRGSTSPFLAEGHDIARPHEGQIDTAANMRALMRGSGLTVEHADLRRELQKDKEAGKDVQRSEIYLQKAYSLRAIPQVVGAVRDTLYHARHKLRIELNSANDNPLFFEGKEIFHGANFHGQPIAFAMDFVTIALTQLGVLAERQINRVLNRHLSYGLPEFLVSGDPGLHSGFAGAQYPATALVAENRTIGPASTQSVPSNGDNQDVVSMGLISARNARRVLSNNNKILAVEYLAAAQAVDISGRFDGLSPAAKATYEAVRRLVPTLGVDRYMADDIELVADALSRGEFLRAIARETDIQLR”, “soluble”.
Regarding “GSMHEYSVVSSLIALCEEHAKKNQAHKIERVVVGIGERSAMDKSLFVSAFETFREESLVCKDAILDIVDEKVELECKDCSHVFKPNALDYGVCEKCHSKNVIITQGNEMRLLSLEMLAE”, the “soluble on expression in E. coli” value is recorded as “soluble”.
On to “GSMKPYKELERVFTKLYRYGHMLLLADWDSHTMMPCKGSDARGAAMAELQLHMHDTITAPKIRALIEEAEKSVGDLEKLQRANLREMRRAWELENLLPEEFVERKTVLTTKAHQVWKTCREKNDFAGFLPTLKELIALFREEGKLRAGNSGKHPYEALVDIYEPGMTLQRLDEIFGNVRSWLPELLKEVQEKQKALGETVLEPKGPFPVSKQEALCRFFMDVWKFDFDGGRLDVSAHPFCGNSKEDVRITTKYTETEFVTSLLGVIHETGHAKYEQNCGPKGFETQPVCMARSLGVHEGQSLFAEMQIGRSGAFMEFLAPRLVEYFGDQPAFTSSNMKRVIQRVSPGLIRIDADELCYPLHVMLRYEIERDLMDGNIEAEEVPRVWNEKMKSYLGLETLGNDKEGCLQDVHWSGGMFGYFPTYSLGAMVAAQLMSCVRRELGEEVVDDCIRKGDLGKILAKQNEKIWQHGSSLTTDELLRQATGETLNPEHYRRHLERRYRDDRG”, for which the “soluble on expression in E. coli” value is “soluble”.
As for “GSMSTKNFRVSDGDWICPDKKCGNVNFARRTSCDRCGREKTTGPI”, the “soluble on expression in E. coli” value is “soluble”.
Under “GSPEFRWTKEEEETRQMYDMVVKIIDVLRSHNEACQENKDLQPYMPIPHVRDSLIQPHDRKKMKKVWDRAVDFLAANESRVRTETRRIGGADFLVWRWIQPSASCDKILVIPSKVWQGQAFHLDRRLERPHRD” stands “soluble”.
Consider “GSPGGSLFVALYDFVASGDNTLSITKGEKLRVLGYNHNGEWCEAQTKNGQGWVPSNYITPVS”, for which the “soluble on expression in E. coli” value is recorded as “soluble”.
